Assay results reported in article PMC2529310, “An amphioxus orthologue of the estrogen receptor that does not bind estradiol: Insights into estrogen receptor evolution”.

Target: T1, amphioxus ER (amphiER) (Branchiostoma floridae, UniProt B3V8B7 1-705)
T1 sequence: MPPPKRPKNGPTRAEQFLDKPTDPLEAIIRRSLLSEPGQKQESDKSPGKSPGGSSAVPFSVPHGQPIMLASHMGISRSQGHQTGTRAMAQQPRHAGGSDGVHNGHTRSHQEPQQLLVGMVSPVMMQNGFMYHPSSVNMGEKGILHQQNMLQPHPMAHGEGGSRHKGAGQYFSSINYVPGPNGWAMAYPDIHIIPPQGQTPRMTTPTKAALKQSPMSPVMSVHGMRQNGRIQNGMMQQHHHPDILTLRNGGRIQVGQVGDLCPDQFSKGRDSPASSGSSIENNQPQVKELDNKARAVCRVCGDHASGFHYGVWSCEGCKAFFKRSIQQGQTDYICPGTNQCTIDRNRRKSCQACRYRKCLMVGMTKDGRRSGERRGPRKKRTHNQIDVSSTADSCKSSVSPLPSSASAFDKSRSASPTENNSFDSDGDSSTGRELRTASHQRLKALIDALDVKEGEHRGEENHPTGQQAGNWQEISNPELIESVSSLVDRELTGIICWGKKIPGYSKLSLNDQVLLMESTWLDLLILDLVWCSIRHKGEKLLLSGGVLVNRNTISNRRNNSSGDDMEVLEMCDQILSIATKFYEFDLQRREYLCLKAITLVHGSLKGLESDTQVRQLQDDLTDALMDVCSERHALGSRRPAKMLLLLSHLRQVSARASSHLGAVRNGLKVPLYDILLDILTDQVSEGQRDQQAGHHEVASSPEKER
Assay: EMSA; EMSA as previously described (ref 93); buffer, salt, pH and temperature not given; in vitro translated proteins in reticulocyte lysate; 10- and 100-fold molar excess of competitors
Settings: protein: ivt; chain copies: 2; label: 32P; blunt (only one strand printed; 30 bp stated; strand is nearly self-complementary)

B1: consensus ERE (dsDNA)
DNA 1: CGGGCCGAGGTCACAGTGACCTCGGCCCGT
DNA 2: ACGGGCCGAGGTCACTGTGACCTCGGCCCG
binding result: binds
